Results published in patent US12398199 (SYSVAX, dated 2025).

B1: NBS1-3 (VHH)
VHH: QVQLVESGGGLVQPGASLRLSCAASGRTFSSTGMGWFRQAPGKEREFVAAISGDGDTTYYADSVKGRFTISRDNAKNTVYLQMNSLKPWDTAVYYCASTRFTWGLYSDFVNSYEYDAWGQGTPVTVSS
notes: also called nano antibody NBS1-3
B2: NBS1-10 (VHH)
VHH: QVQLVESGGGLVQPGGSLRLSCAASGRTFSSTGMGWFRQGPGKEREFVAAISGDGDTTYYADSVKGRFTISRDNAKNTVYLQMNSLKPEDTAVYYCASARFTWGLYSDFVNSYEYDAWGQGTPVTVSS
notes: also called nano antibody NBS1-10
B3: NBS1-57 (VHH)
VHH: QVQLVESGGGLVQPGASLRLFCVASGRTFSSTGMGWFRQAPGKEREFVAAISGPGDTTYYVDSVKGRFTISRDNAKNTVYLQMNSLKPEDTAVYYCASAGFTWGLYSDFVNSYEYNYWGQGTPVTVSS
notes: also called nano antibody NBS1-57
B4: NBS1-2 (VHH)
VHH: QVQLVESGGGLVQAGDSLRLACAATGRTLSNYIMGWFRQAPGKEPLFVAAISRSGVITKYADSVEGRFTISRDNAKNTAYLQMTSLEPEDTAVYYCAASSSKYMATREYDYWGQGTQVTVSS
notes: also called XBS1-2; nano antibody NBS1-2

These binders were tested against antigen RBD-FC protein (SARS-CoV-2 RBD protein) (SARS-CoV-2, UniProt P0DTC2 319-541) (assay: thin film interference (Gator), RBD-Fc captured on anti-human Fc probe, nano antibody in solution).
Experimental: In this example, an instrument Gator® probe life was used to detect an intermolecular interaction with a thin film interference method. A sample to be detected with a concentration not less than 80% and an antigen RBD-FC protein (SARS-CoV-2 RBD protein) with a concentration not less than 90% were prepared.
2. Experimental Method: 1) Detection method of NBS1-2 sample: the nano antibody was detected with an immobilized antigen RBD-Fc (100 nM); the probe type used was the anti-human Fc antibody; and the NBS1-2 was diluted to 60,000 nM, 30,000 nM, 15,000 nM, 7,500 nM, 3,750 nM, 1,875 nM, 937.5 nM, and 0 nM with the Q buffer. 2) Detection method of NBS1-3 sample: the nano antibody was detected with the immobilized antigen RBD-Fc (100 nM); the probe type used was the anti-human Fc antibody; and the NBS1-3 was diluted to 25 nM, 12.5 nM, 6.25 nM, 3.18 nM, 1.56 nM, 0.78 nM, and 0 nM with the Q buffer. 3) Detection method of NBS1-10 sample: the nano antibody was detected with the immobilized antigen RBD-Fc (100 nM); the probe type used was the anti-human Fc antibody; and the NBS1-10 was diluted to 25 nM, 12.5 nM, 6.25 nM, 3.18 nM, 1.56 nM, 0.78 nM, and 0 nM with the Q buffer.
4) Detection method of NBS1-57 sample: the nano antibody was detected with the immobilized antigen RBD-Fc (100 nM); the probe type used was the anti-human Fc antibody; and the NBS1-57 was diluted to 25 nM, 12.5 nM, 6.25 nM, 3.18 nM, 1.56 nM, 0.78 nM, and 0 nM with the Q buffer.

Question: With B1 as the binder, how does the Kd read?
Answer: 0.0301 nM

Question: And the koff?
Answer: 7.16e-05 s⁻¹

Question: What about the kon of the same binder?
Answer: 2.38e+06 M⁻¹ s⁻¹

Question: B2 was tested. Which Kd did it give?
Answer: 1.31 nM

Question: What about the koff of the same binder?
Answer: 0.00311 s⁻¹

Question: What about the kon of the same binder?
Answer: 2.37e+06 M⁻¹ s⁻¹

Question: Which Kd does the source give for B3 here?
Answer: 1.29 nM

Question: What about the koff of the same binder?
Answer: 0.00491 s⁻¹

Question: What about the kon of the same binder?
Answer: 3.8e+06 M⁻¹ s⁻¹

Question: What does the source list for B4?
Answer: Kd: 1410 nM; koff: 0.00127 s⁻¹; kon: 895 M⁻¹ s⁻¹
